Measurements taken from PMC6637015.

Legend:
c-Abl [1] = target: c-Abl (UniProt P00520); test: GSH-bead precipitation of co-expressed c-Abl–mCherry-GST; conditions: reference: wild type, sites Y281
c-Abl [2] = target: c-Abl (UniProt P00520); test: streptavidin precipitation of ligated FcRL1, c-Abl blot; conditions: reference: wild type; sites Y281
[3] = target: c-Abl SH2 domain, 127-217 (UniProt P00520); test: GST-SH2 pull-down from cell lysate; conditions: reference: wild type; sites Y281

Substance: FcRL1 (Fc receptor-like 1) (from UniProt Q8R4Y0) Y281F, BCR ligation
- binding against the reference (c-Abl [1]; BCR ligation): lost

Substance: FcRL1 (Fc receptor-like 1) (from UniProt Q8R4Y0) Y281F
- binding against the reference (c-Abl [2]): lost
- binding against the reference [3]: lost

Substance: FcRL1 (Fc receptor-like 1) (from UniProt Q8R4Y0) Y281F, FcRL1 ligation
- binding against the reference (c-Abl [1]; FcRL1 ligation): lost
